From article PMC11797554 (2024) come the findings set out here.

Assay [1] concerns the target T1, SCRM KiDoK peptide (Arabidopsis, UniProt Q9LSE2, biotin). Kind of assay: BLI.
The target of assay [2] is T1, SCRM KiDoK peptide. The assay is described as follows: BLI; in presence of kC9.
Assay [3] addresses T1, SCRM KiDoK peptide. Kind of assay: BLI; in presence of kC9; kinetic fit.

B1: MPK6ΔNt (29 to 305) (domain or fragment)
chain: QMPGIENIPATLSHGGRFIQYNIFGNIFEVTAKYKPPIMPIGKGAYGIVCSAMNSETNESVAIKKIANAFDNKIDAKRTLREIKLLRHMDHENIVAIRDIIPPPLRNAFNDVYIAYELMDTDLHQIIRSNQALSEEHCQYFLYQILRGLKYIHSANVLHRDLKPSNLLLNANCDLKICDFGLARVTSESDFMTEYVVTRWYRAPELLLNSSDYTAAIDVWSVGCIFMELMDRKPLFPGRDHVHQLRLLMELIGTPSEEELEFLNENAKRYIRQLPPYPRQSITDKFPTVHPLAIDLIEKMLTFDPRRRITVLDALAHPYLNSLHDISDEPECTIPFNFDFENHALSEEQMKELIYREALAFNPEYQQ
For B1, the off-rate (koff) with SCRM KiDoK peptide [1] stood at 0.0327 s⁻¹; with SCRM KiDoK peptide [2], 0.0178 s⁻¹. Besides, the Kd in the assay with SCRM KiDoK peptide [3] was 1050 nM.
